From patent US20230265151A1, “GIP/GLP1 CO-AGONIST COMPOUNDS” (priority 2020, published 2023)
Substitutions are numbered along the chain they refer to. *1 amine or outer side, *2 acyl side, *3 side chain or, on linkers, in order; H or OH if unused. Where no end group is shown, it is not given here. Side-chain parts run from the residue outwards. [ ]: non-standard residue; d: D form. The star is where a group is joined. αMePhe(2-F) = C[C@](N)(Cc1ccccc1F)C(=O)O; γGlu = O=C(O)[C@H](CCC(=O)[*:2])N[*:1]; C14 diacid = O=C(O)CCCCCCCCCCCCC(=O)*; αMeY = C[C@](N)(Cc1ccc(O)cc1)C(=O)O; αMeF = C[C@](N)(Cc1ccccc1)C(=O)O; αMeL = CC(C)C[C@](C)(N)C(=O)O; Orn = NCCC[C@H](N)C(=O)O; AEEA = NCCOCCOCC(=O)O; Aib = CC(C)(N)C(=O)O

T1: human GIP receptor (human, UniProt P48546 22-466)
T1 sequence (looked up): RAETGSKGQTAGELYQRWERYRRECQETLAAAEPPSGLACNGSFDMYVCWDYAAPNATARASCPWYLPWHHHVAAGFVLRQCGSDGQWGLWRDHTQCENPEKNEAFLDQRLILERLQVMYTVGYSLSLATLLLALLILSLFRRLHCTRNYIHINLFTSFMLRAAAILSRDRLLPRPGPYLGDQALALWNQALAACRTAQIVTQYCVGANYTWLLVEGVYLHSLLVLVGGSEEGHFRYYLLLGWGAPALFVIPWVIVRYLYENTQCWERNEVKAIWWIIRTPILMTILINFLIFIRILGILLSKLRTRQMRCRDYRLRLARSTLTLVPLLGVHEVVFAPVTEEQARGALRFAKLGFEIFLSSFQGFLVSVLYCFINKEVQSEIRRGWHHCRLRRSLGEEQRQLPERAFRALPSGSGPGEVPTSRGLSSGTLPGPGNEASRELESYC

B1: Y-Aib-EGT-αMeF(2F)-TSD-4Pal-αMeS-I-αMeL-LD-Orn-IAQ-Aib-K((2-[2-(2-Amino-ethoxy)-ethoxy]-acetyl)2-(γ-Glu)-CO-(CH2)12-CO2H)FIK((2-[2-(2-Amino-ethoxy)-ethoxy]-acet … (peptide)
peptide: YXEGTXTSDXXIXLDXIAQXKFIKXLIEGGPSSGAPPPS
modifications: Aib2, αMeF(2F)6, 4Pal10, αMeS11, αMeL13, Orn16, Aib20, αMeY25; acylated K21, K24 (groups as in name); C-terminal amide
B2: Y-Aib-EGT-αMeF(2F)-TSD-4Pal-αMeS-I-αMeL-LD-Orn-IAQ-Aib-EFIK((2-[2-(2-Amino-ethoxy)-ethoxy]-acetyl)2-(γ-Glu)-CO-(CH2)12-CO2H)-αMeY-LIK((2-[2-(2-Amino-ethoxy)-eth … (peptide)
peptide: B1 peptide with K21E, E28K
modifications: Aib2, αMeF(2F)6, 4Pal10, αMeS11, αMeL13, Orn16, Aib20, αMeY25; acylated K24, K28 (groups as in name); C-terminal amide
B3: Y-Aib-EGT-αMeF(2F)-TSD-4Pal-αMeS-I-αMeL-LD-Orn-IAQ-Aib-K((2-[2-(2-Amino-ethoxy)-ethoxy]-acetyl)2-(γ-Glu)-CO-(CH2)12-CO2H)FI-(D-Glu)-αMeY-LIK((2-[2-(2-Amino-etho … (peptide)
peptide: B1 peptide with K24X, E28K
modifications: Aib2, αMeF(2F)6, 4Pal10, αMeS11, αMeL13, Orn16, Aib20, D-Glu24, αMeY25; acylated K21, K28 (groups as in name); C-terminal amide
B4: Y-Aib-EGT-αMeF(2F)-TSD-4Pal-SI-αMeL-LD-Orn-K((2-[2-(2-Amino-ethoxy)-ethoxy]-acetyl)2-(γ-Glu)-CO-(CH2)12-CO2H)AQ-Aib-E-1Nal-I-(D-Glu)-αMeY-LIEGGK((2-[2-(2-Amino- … (peptide)
peptide: YXEGTXTSDXSIXLDXKAQXEXIXXLIEGGKSSGAPPPS
modifications: Aib2, αMeF(2F)6, 4Pal10, αMeL13, Orn16, Aib20, 1Nal22, D-Glu24, αMeY25; acylated K17, K31 (groups as in name); C-terminal amide
B5: Y-Aib-EGT-αMeF(2F)-TSD-4Pal-αMeS-I-αMeL-LD-Orn-K((2-[2-(2-Amino-ethoxy)-ethoxy]-acetyl)2-(γ-Glu)-CO-(CH2)12-CO2H)AQ-Aib-EFI-(D-Glu)-αMeY-LIEGGK((2-[2-(2-Amino-e … (peptide)
peptide: B4 peptide with S11X, X22F
modifications: Aib2, αMeF(2F)6, 4Pal10, αMeS11, αMeL13, Orn16, Aib20, D-Glu24, αMeY25; acylated K17, K31 (groups as in name); C-terminal amide
B6: Y-Aib-EGT-αMeF(2F)-TSD-4Pal-SI-αMeL-LD-Orn-K((2-[2-(2-Amino-ethoxy)-ethoxy]-acetyl)2-(γ-Glu)-CO-(CH2)12-CO2H)AQ-Aib-EFI-(D-Glu)-αMeY-LIEGGK((2-[2-(2-Amino-ethox … (peptide)
peptide: B4 peptide with X22F, S39X
modifications: Aib2, αMeF(2F)6, 4Pal10, αMeL13, Orn16, Aib20, D-Glu24, αMeY25, Orn39; acylated K17, K31 (groups as in name); C-terminal amide
B7: Y-Aib-EGT-αMeF(2F)-TSD-4Pal-SI-αMeL-LD-Orn-K((2-[2-(2-Amino-ethoxy)-ethoxy]-acetyl)2-(γ-Glu)-CO-(CH2)12-CO2H)AQ-Aib-E-αMeF(2F)-I-(D-Glu)-αMeY-LIEGGK((2-[2-(2-Am … (peptide)
peptide: B4 peptide
modifications: Aib2, αMeF(2F)6, 4Pal10, αMeL13, Orn16, Aib20, αMeF(2F)22, D-Glu24, αMeY25; acylated K17, K31 (groups as in name); C-terminal amide
B8: Y-Aib-EGT-αMeF(2F)-TSD-4Pal-GI-αMeL-LD-Orn-K((2-[2-(2-Amino-ethoxy)-ethoxy]-acetyl)2-(γ-Glu)-CO-(CH2)12-CO2H)AQ-Aib-EFI-(D-Glu)-αMeY-LIEGGK((2-[2-(2-Amino-ethox … (peptide)
peptide: B4 peptide with S11G, X22F
modifications: Aib2, αMeF(2F)6, 4Pal10, αMeL13, Orn16, Aib20, D-Glu24, αMeY25; acylated K17, K31 (groups as in name); C-terminal amide
B9: Y-Aib-EGT-αMeF(2F)-TSD-ChG-SI-αMeL-LD-Orn-K((2-[2-(2-Amino-ethoxy)-ethoxy]-acetyl)2-(γ-Glu)-CO-(CH2)12-CO2H)AQ-Aib-EFI-(D-Glu)-αMeY-LIEGGK((2-[2-(2-Amino-ethoxy … (peptide)
peptide: B4 peptide with X22F
modifications: Aib2, αMeF(2F)6, ChG10, αMeL13, Orn16, Aib20, D-Glu24, αMeY25; acylated K17, K31 (groups as in name); C-terminal amide
B10: Y-Aib-EGT-αMeF(2F)-TSD-4Pal-Aib-I-αMeL-LD-Orn-K((2-[2-(2-Amino-ethoxy)-ethoxy]-acetyl)2-(γ-Glu)-CO-(CH2)12-CO2H)AQ-Aib-EFI-(D-Glu)-αMeY-LIEGGK((2-[2-(2-Amino-et … (peptide)
peptide: B4 peptide with S11X, X22F
modifications: Aib2, αMeF(2F)6, 4Pal10, Aib11, αMeL13, Orn16, Aib20, D-Glu24, αMeY25; acylated K17, K31 (groups as in name); C-terminal amide
B11: Y-Aib-EGT-αMeF(2F)-TSD-ChA-SI-αMeL-LD-Orn-K((2-[2-(2-Amino-ethoxy)-ethoxy]-acetyl)2-(γ-Glu)-CO-(CH2)12-CO2H)AQ-Aib-EFI-(D-Glu)-αMeY-LIEGGK((2-[2-(2-Amino-ethoxy … (peptide)
peptide: B4 peptide with X22F
modifications: Aib2, αMeF(2F)6, ChA10, αMeL13, Orn16, Aib20, D-Glu24, αMeY25; acylated K17, K31 (groups as in name); C-terminal amide
B12: Y-Aib-EGT-αMeF(2F)-TSD-4Pal-Dap-I-αMeL-LD-Orn-K((2-[2-(2-Amino-ethoxy)-ethoxy]-acetyl)2-(γ-Glu)-CO-(CH2)12-CO2H)AQ-Aib-EFI-(D-Glu)-αMeY-LIEGGK((2-[2-(2-Amino-et … (peptide)
peptide: B4 peptide with S11X, X22F
modifications: Aib2, αMeF(2F)6, 4Pal10, Dap11, αMeL13, Orn16, Aib20, D-Glu24, αMeY25; acylated K17, K31 (groups as in name); C-terminal amide
B13: Y-Aib-EGT-αMeF(2F)-TSD-4Pal-SI-αMeL-LD-Orn-K((2-[2-(2-Amino-ethoxy)-ethoxy]-acetyl)2-(γ-Glu)-CO-(CH2)12-CO2H)GQ-Aib-EFI-(D-Glu)-αMeY-LIEGGK((2-[2-(2-Amino-ethox … (peptide)
peptide: B4 peptide with A18G, X22F
modifications: Aib2, αMeF(2F)6, 4Pal10, αMeL13, Orn16, Aib20, D-Glu24, αMeY25; acylated K17, K31 (groups as in name); C-terminal amide
B14: Y-Aib-EGT-αMeF(2F)-TSD-4Pal-SI-αMeL-LD-Orn-K((2-[2-(2-Amino-ethoxy)-ethoxy]-acetyl)2-(γ-Glu)-CO-(CH2)i2-CO2H)AQ-Aib-4Pal-FI-(D-Glu)-αMeY-LIEGGK((2-[2-(2-Amino-e … (peptide)
peptide: B4 peptide with E21X, X22F
modifications: Aib2, αMeF(2F)6, 4Pal10, αMeL13, Orn16, Aib20, 4Pal21, D-Glu24, αMeY25; acylated K17, K31 (groups as in name); C-terminal amide

What was measured:
Test in all cases: cell-based or functional assay
human GIP receptor = molecular target: T1, human GIP receptor
human GLP-1 receptor = human GLP-1 receptor (human, UniProt P43220 24-463)
human glucagon receptor = human glucagon receptor (human, UniProt P47871 26-477)

Binder | cAMP EC50 (1.0% HSA) (human GIP receptor) | cAMP Emax (1.0% HSA) (human GIP receptor) | cAMP EC50 (1.0% HSA) (human GLP-1 receptor) | cAMP EC50 (1.0% HSA) (human glucagon receptor) | cAMP Emax (1.0% HSA) (human GLP-1 receptor)
Y[Aib]EGT[αMePhe(2-F)]TSDV[Aib]I[αMeL]LD[Orn]K([AEEA-AEEA-γGlu-C14 diacid])AQ[Aib]E[αMeF]I[dE][αMeY]LIEGGK([AEEA-AEEA-γGlu-C14 diacid])SSGAPPPS-NH2 | 0.00558 µM | 92% | 0.066 µM | > 9.95 µM | 
B1 | 0.000925 µM | 91.3% | 0.0148 µM | > 9.95 µM | 107%
B2 | 0.00531 µM | 63.4% | 0.0323 µM | > 9.95 µM | 117%
B3 | 0.00784 µM | 62.7% | 0.0878 µM | > 9.95 µM | 118%
B4 | 0.000787 µM | 90.6% | 0.027 µM | > 9.95 µM | 93%
B5 | 0.00438 µM | 95.6% | 0.0403 µM | > 9.95 µM | 102%
B6 | 0.00134 µM | 93% | 0.0705 µM | > 9.95 µM | 103%
B7 | 0.000591 µM | 80.3% | 0.209 µM | > 9.95 µM | 
B8 | 0.00261 µM | 98.3% | 0.402 µM | > 9.95 µM | 123%
B9 | 0.00549 µM |  | 0.227 µM | > 9.95 µM | 
B10 | 0.00149 µM | 94.2% | 0.0277 µM | > 9.95 µM | 108%
B11 | 0.00497 µM |  | 0.0581 µM | > 9.95 µM | 
B12 | 0.00245 µM | 77.1% | 0.07 µM | > 9.95 µM | 100%
B13 | 0.00236 µM | 96.9% | 0.367 µM | > 9.95 µM | 
B14 | 0.000718 µM | 89.6% | 0.036 µM | > 9.95 µM | 
